Data from PMC6123492, “Structural and biochemical insights into small RNA 3′ end trimming by Arabidopsis SDN1”.

Experiments:
SDN1 wild type [1] = molecular target: T1, SDN1 wild type (Arabidopsis thaliana, UniProt A3KPE8 2-409); assay: UV crosslinking (5-iodoU, 312 nm); EMSA: 50 mM Tris pH 8.0, 100 mM NaCl, 1 mM DTT, no Mg2+, 2 nM RNA, on ice 30 min, 8% native PAGE in 0.5x TBE; NMR: 50 mM Na2HPO4 pH 7.4, 100 mM NaCl, 10% D2O; settings: protein: recombinant, tags: His-SUMO tag removed
T1 sequence: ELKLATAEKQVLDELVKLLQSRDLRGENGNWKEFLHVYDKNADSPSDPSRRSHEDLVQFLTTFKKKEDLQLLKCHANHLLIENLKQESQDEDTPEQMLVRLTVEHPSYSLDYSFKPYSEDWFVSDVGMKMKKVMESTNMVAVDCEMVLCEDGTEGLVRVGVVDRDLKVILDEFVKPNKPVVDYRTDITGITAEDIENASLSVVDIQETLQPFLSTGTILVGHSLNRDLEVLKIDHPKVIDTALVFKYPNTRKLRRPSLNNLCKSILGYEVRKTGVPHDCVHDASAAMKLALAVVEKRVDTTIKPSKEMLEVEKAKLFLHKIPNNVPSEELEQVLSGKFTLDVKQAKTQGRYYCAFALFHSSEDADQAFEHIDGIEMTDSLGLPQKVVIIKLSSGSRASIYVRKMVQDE

SDN1 ΔC = molecular target: T2, SDN1 ΔC (Arabidopsis thaliana, UniProt A3KPE8 2-302); assay: as above; settings: protein: recombinant, tags: His-SUMO tag removed
T2 sequence: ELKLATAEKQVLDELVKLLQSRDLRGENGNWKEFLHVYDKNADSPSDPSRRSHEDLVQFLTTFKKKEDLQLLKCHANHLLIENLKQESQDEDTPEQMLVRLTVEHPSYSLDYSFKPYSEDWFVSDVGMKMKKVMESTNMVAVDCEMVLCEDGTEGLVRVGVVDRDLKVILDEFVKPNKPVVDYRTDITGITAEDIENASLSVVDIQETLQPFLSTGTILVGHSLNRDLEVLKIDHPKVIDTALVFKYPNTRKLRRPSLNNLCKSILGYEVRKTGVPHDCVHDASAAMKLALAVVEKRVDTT

SDN1 RRM (NMR) = molecular target: T3, SDN1 RRM (NMR) (Arabidopsis thaliana, UniProt A3KPE8 305-409); assay: NMR titration; EMSA: 50 mM Tris pH 8.0, 100 mM NaCl, 1 mM DTT, no Mg2+, 2 nM RNA, on ice 30 min, 8% native PAGE in 0.5x TBE; NMR: 50 mM Na2HPO4 pH 7.4, 100 mM NaCl, 10% D2O; settings: protein: recombinant; tags: His-SUMO tag removed; 15N-labeled; single strand
T3 sequence: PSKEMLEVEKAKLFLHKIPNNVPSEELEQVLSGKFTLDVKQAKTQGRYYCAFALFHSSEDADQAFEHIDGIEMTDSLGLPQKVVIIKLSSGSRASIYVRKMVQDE

SDN1 wild type [2] = molecular target: T1, SDN1 wild type; assay: crystal structure; 2 Mg2+; 9 of 10 nt seen, 2.8 Å; EMSA: 50 mM Tris pH 8.0, 100 mM NaCl, 1 mM DTT, no Mg2+, 2 nM RNA, on ice 30 min, 8% native PAGE in 0.5x TBE; NMR: 50 mM Na2HPO4 pH 7.4, 100 mM NaCl, 10% D2O; settings: protein: recombinant; tags: His-SUMO tag removed; single strand
SDN1 wild type [3] = molecular target: T1, SDN1 wild type; assay: EMSA; no Mg2+; Kd,app in µM range, value only in figure; EMSA: 50 mM Tris pH 8.0, 100 mM NaCl, 1 mM DTT, no Mg2+, 2 nM RNA, on ice 30 min, 8% native PAGE in 0.5x TBE; NMR: 50 mM Na2HPO4 pH 7.4, 100 mM NaCl, 10% D2O; settings: protein: recombinant; tags: His-SUMO tag removed; label: 5' 32P; single strand
[4] = label: 5' 32P on target strand, unpaired miR166 3' end (T6-type), target 3' overhang 4 nt

Binder: GAUUCCCUUGAAGCUUGGUCCGGAUUA (ssRNA, 5-iodoU at 15,16) [M-IUU RNA]
- binding result (SDN1 wild type [1]; label: 32P, single strand): binds

B1: miR166:3'-IUU (dsRNA)
RNA 1: UCGGACCAGGCUUCAUCCCCC
RNA 2: GAUUCCCUUGAAGCUUGGUCCGGAUUA
modifications: 5-iodoU at 25,26 of strand 2
- binding result (SDN1 wild type [1]; [4]): binds
- binding result (SDN1 ΔC; [4]): binds

Binder: AGCCCAUUAG (ssRNA) [10 nt ssRNA (crystal, NMR)]
- binding result (SDN1 RRM (NMR)): binds
- binding result (SDN1 wild type [2]): binds

Binder: GAUUCCCUUGAAGCUUGGUCCGGAUUA (ssRNA, 5-iodoU at 3,4) [5'-IUU RNA]
- binding result (SDN1 wild type [1]; label: 32P, single strand): binds

B2: miR166:5'-IUU (dsRNA)
RNA 1: UCGGACCAGGCUUCAUCCCCC
RNA 2: GAUUCCCUUGAAGCUUGGUCCGGAUUA
modifications: 5-iodoU at 3,4 of strand 2
- binding result (SDN1 wild type [1]; [4]): binds

Binder: UUCGCUUGCAGAGAGAAAUCAC (ssRNA) [miR173 (22 nt RNA)]
- binding result (SDN1 wild type [3]): binds

Binder: GAUUCCCUUGAAGCUUGGUCCGGAUUA (ssRNA, 5-iodoU at 25,26) [3'-IUU RNA]
- binding result (SDN1 wild type [1]; label: 32P, single strand): binds
- binding result (SDN1 ΔC; label: 32P, single strand): binds
